From paper PMC13483459

Target: retromer–SNX3 complex (VPS26A, VPS35-VPS29 fusion, SNX3) (human) (UniProt Q96QK1)

B1: AAVR cytosolic tail peptide (residues 956-974) (peptide)
peptide: KRQKGKPKRKSKYKILDAT
mean tube length per liposome (liposome tubulation with retromer and SNX3): 503 nm
proportion of liposomes tubulated (cryo-EM; 2.5 uM retromer, 8.75 uM SNX3, 25 uM peptide, 600 uM liposomes, overnight at 4°C; n = 3): 3.54%

B2: DMT1-II cargo peptide (residues 550-568) (peptide)
peptide: AQPELYLLNTMDADSLVSR
mean tube length per liposome (liposome tubulation with retromer and SNX3): 568 nm
proportion of liposomes tubulated (cryo-EM; 2.5 uM retromer, 8.75 uM SNX3, 25 uM peptide, 600 uM liposomes, overnight at 4°C; n = 3): 4.15%

B3: AAVR cytosolic tail peptide lacking the predicted sorting signal (residues 956-967) (peptide)
peptide: KRQKGKPKRKSK
proportion of liposomes tubulated (cryo-EM; liposomes with retromer, SNX3 and the peptide lacking the motif): 0%
